Residue numbers refer to the chain shown, from its start.
Experiments:
[1] = target: T1, recombinant FN fragment 7B89 (human, UniProt P02751 1173-1537, limits assumed, biotinylated for BIAcore (sites not given)); assay: ELISA on coated antigen, background subtracted
T1 construct: domain: type III homology repeats 7B89; also called rec FN7B89; 78B9 [sic]
Procedure: (§1) All antigens used in ELISA were diluted in PBS to between 50-100 μg/ml and coated at 4° C. overnight onto Immuno-Plate wells (Nunc, Roskilde, Denmark). Unbound antigen was removed with PBS and plates were then blocked with PBS containing 3% (w/v) bovine serum albumin (BSA) for 2 h at 37° C. This was followed by four washes with PBS containing 0.05% Tween 20 (PBST). Antibodies were then allowed to bind at 37° C. for 1.5 h; scFvs were preincubated with an antiserum directed against the tag sequence: mAb M2 [Kodak, New Haven Conn.] for the FLAG tag or 9E10 [ATCC, Rockville, Md.] for the myc tag. Control antibodies tested were mAbs BC-1 and IST-6. After four washes with PBST, the plates were incubated for 1 h at 37° C. with 1:2000 diluted (in PBST+3% BSA) biotinylated goat anti-mouse IgG (Bio-SPA Division, Milan, Italy). The washes were repeated and Streptavidin-biotinylated alkaline phosphatase complex (Bio-SPA Division, Milan, Italy) was added (1:800 diluted in PBST containing 2 mM MgCl2) for 1 h at 37° C. The reaction was developed using Phosphatase substrate tablets (Sigma) in 10% diethanolamine, pH 9.8 and the optical density was read at 405 nm.

[2] = target: T2, native FN 110 kD (B-) thermolysin fragment (human, UniProt P02751-1 722-1630, limits assumed); assay: ELISA on coated antigen, background subtracted
T2 construct: domain: thermolysin treated FN domain 4, without ED-B; also called 110 kD protein
Procedure: as §1

[3] = target: T3, recombinant FN fragment 789 (human, UniProt P02751-1 1173-1446, limits assumed); assay: ELISA on coated antigen, background subtracted
T3 construct: domain: type III homology repeats 789; the text treats it as lacking ED-B; also called rec FN789
Procedure: as §1

[4] = target: T4, recombinant ED-B domain of human fibronectin with a carboxy terminal hexahistidine tag (human, UniProt P02751 1266-1356); assay: ELISA on coated antigen, background subtracted
T4 construct: domain: ED-B; In BIAcore chemically immobilised at the N-terminal amino group; also called rec ED-B; recombinant ED-B peptide
Procedure: as §1

[5] = target: T5, fibronectin purified from the conditioned medium of the SV40-transformed cell line WI38VA13 (human, UniProt P02751 32-2477); assay: ELISA on coated antigen, background subtracted
T5 construct: mature; Mixture of isoforms, most of them B+; also called FN WI38VA; WI38VA FN
Procedure: as §1

[6] = target: T6, native FN 120 kD (B+) thermolysin fragment (human, UniProt P02751 722-1721, limits assumed); assay: ELISA on coated antigen, background subtracted
T6 construct: domain: thermolysin treated FN domain 4, containing ED-B; also called 120 kD protein; 120 kD domain
Procedure: as §1

recombinant FN domain 6 [7] = target: T7, recombinant FN domain 6 (human, UniProt P02751 1086-1172, limits assumed); assay: ELISA on coated antigen, background subtracted
T7 construct: domain: FN-6; also called rec FN-6; rec FN6
Procedure: as §1

mouse B-FN = target: T8, mouse B-FN (mouse, UniProt P11276 33-2477, limits assumed); assay: immunohistochemistry
T8 construct: also called mouse B+ fibronectin

[8] = target: T1, recombinant FN fragment 7B89; assay: BIAcore, monomeric scFv on immobilised antigen
Procedure: (§2) Binding of monovalent scFv at various concentrations in the 0.1-1 μM range in PBS was measured on a BIAcore machine (Pharmacia Biosensor), using the following antigens: (i) 1000 Resonance Units (RU) of biotinylated recombinant FN fragment 7B89 immobilised on a streptavidin coated chip, which was bound specifically by 250 RU of scFv; (ii) 200 RU of recombinant ED-B, chemically immobilised at the N-terminal amino group, which was bound specifically by 600 RU of scFv; (iii) 3500 RU of ED-B-rich fibronectin WI38VA (see Example 3), which was bound specifically by 150 RU of scFv. Kinetic analysis of the data was performed according to the manufacturers' instructions. On the basis of qualitative BIAcore analysis of antibody-containing supernatants, one affinity-matured version of each scFv clone was selected: clone CGS-1 from selection with the 78B9 fragment and CGS-2 from selection with ED-B recombinant FN fragment. The association rate constants ($kon$) and dissociation rate constants ($koff$) are shown in Table 1, together with the calculated equilibrium dissociation constants (Kd) of both scFvs and the original clone 28SI. […] The improvement was due mainly to a slower kinetic dissociation constant (-10^-4 s^-1), as measured with monomeric antibody preparations (not shown).

[9] = target: T4, recombinant ED-B domain of human …; assay: BIAcore, monomeric scFv on immobilised antigen
Procedure: as §2

[10] = target: T5, fibronectin purified from the …; assay: BIAcore, monomeric scFv on immobilised antigen
Procedure: as §2

[11] = target: T3, recombinant FN fragment 789; assay: immunoblot of recombinant FN proteins expressed in E. coli
Procedure: The fine specificity of CGS-1 and CGS-2 was investigated further by immunoblotting using recombinant FN fragments and fusion proteins with or without the ED-B sequence. The FN fusion proteins were prepared as described by Carnemolla et al (1989). The results of these experiments are shown in FIG. 3; for the association of the schematic diagram to the structure of the domains of human FN, see Carnemolla et al, 1992.

[12] = target: T9, 85 kD thermolysin fragment of FN from WI38VA cells (human, UniProt P02751 722-1351, limits assumed); assay: immunoblot
T9 construct: domain: 85 kD fragment spanning repeats 2-7 in addition to the N-terminus of ED-B; also called 85 kD fragment; 85 kD domain
Procedure: (§3) The antigens used for ELISA and immunoblotting were prepared as follows. FN was purified from human plasma and from the conditioned medium of the WI38VA13 cell line as previously reported (Zardi et al, 1987). Purified FNs were digested with thermolysin (protease type X; Sigma Chemical Co.) as reported by Carnemolla et al (1989). Native FN 110 kD (B−) and native FN 120 kD (B+) fragments (see FIG. 2) were purified from a FN digest as previously reported (Borsi et al, 1991). The large isoform of tenascin-C was purified as reported by Saginati et al (1992). Recombinant proteins were expressed and purified as described in Example 1. SDS-PAGE and Western blotting were carried out as described by Carnemolla et al (1989).
(§4) On the left hand side of FIG. 2B is a Coomassie stained gel of the protein fractions analysed by immunoblotting. Plasma FN (lane 1) and thermolysin digests of the protein (lane 3, containing the 110 kD protein, and lane 4, containing digested 110 kD protein) were not recognised by CGS-1 and CGS-2. In contrast, ED-B-rich FN from WI38VA cells, both intact (lane 2) and after increasing thermolysin digestion (lanes 5, 6 and 7) was recognised by both scFv fragments. […]

[13] = target: T1, recombinant FN fragment 7B89; assay: BIAcore, monomeric scFv on immobilised antigen; Kd = koff/kon
Procedure: as §2

[14] = target: T4, recombinant ED-B domain of human …; assay: as above
Procedure: as §2

[15] = target: T5, fibronectin purified from the …; assay: as above
Procedure: as §2

[16] = target: T2, native FN 110 kD (B-) thermolysin …; assay: ELISA
recombinant FN domain 6 [17] = target: T7, recombinant FN domain 6; assay: ELISA
chicken B-FN = target: T10, chicken B-FN (chicken, UniProt P11722 22-2483, limits assumed); assay: immunohistochemistry
T10 construct: also called chicken B+ fibronectin

[18] = target: T2, native FN 110 kD (B-) thermolysin …; assay: immunoblot
Procedure: as §3, §4

T4 sequence (P02751 other isoform, or with tags, fused parts or gaps limits assumed): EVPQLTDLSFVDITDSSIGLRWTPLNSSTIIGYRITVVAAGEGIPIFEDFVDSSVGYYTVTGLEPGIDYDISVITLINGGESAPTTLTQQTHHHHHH
T2 sequence (P02751 other isoform, or with tags, fused parts or gaps limits assumed): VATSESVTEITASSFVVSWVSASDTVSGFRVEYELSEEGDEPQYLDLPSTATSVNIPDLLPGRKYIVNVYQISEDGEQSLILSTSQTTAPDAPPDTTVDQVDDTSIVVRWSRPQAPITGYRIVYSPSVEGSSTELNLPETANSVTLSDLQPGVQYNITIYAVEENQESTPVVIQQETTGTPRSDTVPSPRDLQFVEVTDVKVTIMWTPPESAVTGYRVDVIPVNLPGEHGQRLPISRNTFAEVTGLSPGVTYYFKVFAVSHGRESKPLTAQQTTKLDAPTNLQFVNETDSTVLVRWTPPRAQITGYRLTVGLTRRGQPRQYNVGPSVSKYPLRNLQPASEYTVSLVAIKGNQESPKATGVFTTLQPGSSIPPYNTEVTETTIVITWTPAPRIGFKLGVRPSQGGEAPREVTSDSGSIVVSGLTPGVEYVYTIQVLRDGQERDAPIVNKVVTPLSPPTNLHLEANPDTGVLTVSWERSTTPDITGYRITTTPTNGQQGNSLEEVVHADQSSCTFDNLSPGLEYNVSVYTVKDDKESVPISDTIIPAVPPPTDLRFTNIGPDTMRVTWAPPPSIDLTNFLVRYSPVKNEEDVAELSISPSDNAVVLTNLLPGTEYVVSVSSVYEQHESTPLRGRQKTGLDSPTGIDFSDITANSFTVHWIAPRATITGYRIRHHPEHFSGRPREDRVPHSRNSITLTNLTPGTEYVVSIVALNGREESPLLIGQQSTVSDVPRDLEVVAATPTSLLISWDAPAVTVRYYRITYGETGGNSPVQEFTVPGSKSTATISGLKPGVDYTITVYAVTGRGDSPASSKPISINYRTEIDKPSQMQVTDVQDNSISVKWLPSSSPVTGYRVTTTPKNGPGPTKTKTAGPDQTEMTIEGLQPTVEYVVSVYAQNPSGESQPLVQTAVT
T3 sequence (P02751 other isoform, or with tags, fused parts or gaps limits assumed): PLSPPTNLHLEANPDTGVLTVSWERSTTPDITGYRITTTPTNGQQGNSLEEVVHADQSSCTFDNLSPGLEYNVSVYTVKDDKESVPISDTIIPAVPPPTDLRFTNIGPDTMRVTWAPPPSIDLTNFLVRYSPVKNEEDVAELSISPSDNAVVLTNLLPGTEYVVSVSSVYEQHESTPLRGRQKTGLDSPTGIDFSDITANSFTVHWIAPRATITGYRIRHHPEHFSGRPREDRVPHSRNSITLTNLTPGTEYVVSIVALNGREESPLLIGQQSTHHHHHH
T5 sequence (P02751 32-2477): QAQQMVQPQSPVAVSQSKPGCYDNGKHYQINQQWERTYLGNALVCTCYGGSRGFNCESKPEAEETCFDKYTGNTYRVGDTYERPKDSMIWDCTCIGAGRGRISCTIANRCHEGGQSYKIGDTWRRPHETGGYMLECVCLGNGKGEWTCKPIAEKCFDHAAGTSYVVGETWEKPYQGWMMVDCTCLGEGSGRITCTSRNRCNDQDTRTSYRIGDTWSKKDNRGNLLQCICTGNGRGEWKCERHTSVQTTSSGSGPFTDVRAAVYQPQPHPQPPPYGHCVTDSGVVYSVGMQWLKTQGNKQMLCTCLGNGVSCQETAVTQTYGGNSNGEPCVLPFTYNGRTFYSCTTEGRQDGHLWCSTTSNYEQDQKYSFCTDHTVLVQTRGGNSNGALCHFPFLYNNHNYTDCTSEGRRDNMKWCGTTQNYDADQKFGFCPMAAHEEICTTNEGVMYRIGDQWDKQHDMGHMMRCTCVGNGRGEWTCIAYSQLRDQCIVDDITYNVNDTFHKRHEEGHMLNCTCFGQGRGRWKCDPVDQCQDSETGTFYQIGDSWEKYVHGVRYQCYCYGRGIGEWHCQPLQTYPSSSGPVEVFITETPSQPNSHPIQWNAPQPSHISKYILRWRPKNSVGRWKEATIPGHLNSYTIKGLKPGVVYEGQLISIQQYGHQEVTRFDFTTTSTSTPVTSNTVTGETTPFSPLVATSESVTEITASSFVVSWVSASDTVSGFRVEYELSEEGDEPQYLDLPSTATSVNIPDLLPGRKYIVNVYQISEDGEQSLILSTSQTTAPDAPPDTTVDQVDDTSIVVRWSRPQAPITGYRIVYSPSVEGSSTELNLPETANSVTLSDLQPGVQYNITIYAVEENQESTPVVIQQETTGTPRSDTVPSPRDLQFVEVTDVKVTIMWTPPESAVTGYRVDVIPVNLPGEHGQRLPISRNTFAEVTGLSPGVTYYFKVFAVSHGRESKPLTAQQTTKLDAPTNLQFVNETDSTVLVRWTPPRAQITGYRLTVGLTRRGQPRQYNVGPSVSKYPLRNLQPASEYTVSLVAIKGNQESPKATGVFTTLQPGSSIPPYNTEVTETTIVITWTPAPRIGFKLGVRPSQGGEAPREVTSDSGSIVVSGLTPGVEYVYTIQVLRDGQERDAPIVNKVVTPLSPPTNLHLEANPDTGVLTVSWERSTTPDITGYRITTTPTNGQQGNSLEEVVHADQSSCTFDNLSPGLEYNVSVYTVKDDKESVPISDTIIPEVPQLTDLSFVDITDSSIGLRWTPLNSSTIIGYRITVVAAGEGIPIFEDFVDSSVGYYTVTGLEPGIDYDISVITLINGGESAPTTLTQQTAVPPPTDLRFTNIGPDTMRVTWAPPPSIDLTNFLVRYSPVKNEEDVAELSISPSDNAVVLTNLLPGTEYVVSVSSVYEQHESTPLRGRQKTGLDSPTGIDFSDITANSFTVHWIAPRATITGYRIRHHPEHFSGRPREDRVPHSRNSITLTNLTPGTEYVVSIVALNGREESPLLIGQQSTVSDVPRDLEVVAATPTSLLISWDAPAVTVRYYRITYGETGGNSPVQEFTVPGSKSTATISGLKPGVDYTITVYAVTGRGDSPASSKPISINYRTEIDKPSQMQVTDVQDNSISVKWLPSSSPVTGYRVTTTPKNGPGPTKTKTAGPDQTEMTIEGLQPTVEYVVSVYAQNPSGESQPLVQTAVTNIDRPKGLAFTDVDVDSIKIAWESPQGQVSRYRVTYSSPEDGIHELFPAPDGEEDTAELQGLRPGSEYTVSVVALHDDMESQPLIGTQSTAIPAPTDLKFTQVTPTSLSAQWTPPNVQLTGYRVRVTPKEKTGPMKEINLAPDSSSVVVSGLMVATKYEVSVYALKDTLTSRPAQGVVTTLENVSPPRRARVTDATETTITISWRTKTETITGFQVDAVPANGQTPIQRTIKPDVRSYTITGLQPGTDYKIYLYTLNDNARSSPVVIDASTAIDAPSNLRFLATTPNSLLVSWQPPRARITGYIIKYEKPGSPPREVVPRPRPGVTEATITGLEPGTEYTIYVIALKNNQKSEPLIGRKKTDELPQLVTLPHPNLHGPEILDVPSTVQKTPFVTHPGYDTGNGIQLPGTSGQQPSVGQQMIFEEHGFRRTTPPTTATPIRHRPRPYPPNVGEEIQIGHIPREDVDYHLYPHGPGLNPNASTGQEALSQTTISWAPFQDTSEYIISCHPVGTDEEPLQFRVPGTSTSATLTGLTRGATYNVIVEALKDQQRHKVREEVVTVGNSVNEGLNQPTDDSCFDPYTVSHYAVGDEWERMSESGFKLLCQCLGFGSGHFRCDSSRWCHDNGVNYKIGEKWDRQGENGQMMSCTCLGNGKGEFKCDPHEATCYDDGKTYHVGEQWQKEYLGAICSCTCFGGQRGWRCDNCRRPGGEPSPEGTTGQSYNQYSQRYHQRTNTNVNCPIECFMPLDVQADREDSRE
T1 sequence (P02751 other isoform, or with tags, fused parts or gaps limits assumed): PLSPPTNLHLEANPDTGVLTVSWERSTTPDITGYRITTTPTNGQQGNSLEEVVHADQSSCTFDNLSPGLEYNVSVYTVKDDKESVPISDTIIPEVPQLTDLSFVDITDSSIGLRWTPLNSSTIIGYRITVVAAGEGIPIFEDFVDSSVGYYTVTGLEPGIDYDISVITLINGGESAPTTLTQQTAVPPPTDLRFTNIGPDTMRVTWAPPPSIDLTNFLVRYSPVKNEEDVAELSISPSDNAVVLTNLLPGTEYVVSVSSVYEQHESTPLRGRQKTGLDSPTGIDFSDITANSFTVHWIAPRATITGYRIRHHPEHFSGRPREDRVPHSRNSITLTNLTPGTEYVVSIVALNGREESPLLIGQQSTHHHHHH
T7 sequence (P02751 other isoform, or with tags, fused parts or gaps limits assumed): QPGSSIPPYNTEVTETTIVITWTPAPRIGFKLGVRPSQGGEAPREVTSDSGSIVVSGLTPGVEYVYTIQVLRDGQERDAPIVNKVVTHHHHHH
T9 sequence (P02751 722-1351 limits assumed): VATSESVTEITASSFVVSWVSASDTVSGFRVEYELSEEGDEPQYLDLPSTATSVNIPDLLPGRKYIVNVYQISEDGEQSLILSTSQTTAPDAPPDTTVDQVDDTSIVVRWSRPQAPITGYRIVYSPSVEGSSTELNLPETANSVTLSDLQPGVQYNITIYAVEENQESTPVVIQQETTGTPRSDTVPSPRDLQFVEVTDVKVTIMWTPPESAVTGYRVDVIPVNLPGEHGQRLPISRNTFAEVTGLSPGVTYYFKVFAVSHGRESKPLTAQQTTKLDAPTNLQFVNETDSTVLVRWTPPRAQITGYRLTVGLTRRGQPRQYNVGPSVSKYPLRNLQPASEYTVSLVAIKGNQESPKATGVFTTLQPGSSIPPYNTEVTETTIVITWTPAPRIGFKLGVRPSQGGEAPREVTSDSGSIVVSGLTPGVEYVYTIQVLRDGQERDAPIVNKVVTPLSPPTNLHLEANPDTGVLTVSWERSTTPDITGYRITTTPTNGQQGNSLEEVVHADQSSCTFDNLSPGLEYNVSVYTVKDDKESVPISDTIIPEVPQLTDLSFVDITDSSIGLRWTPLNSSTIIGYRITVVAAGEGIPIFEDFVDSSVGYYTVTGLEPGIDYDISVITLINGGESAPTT

B1: scFv CGS-1 (scFv, V domains shown)
VH: QVQLVESGGGLVQPGGSLRLSCAVSGFTFSSYAMSWVRQAPGKGLEWVSAISGSGGSTYYADSVKGRFTISRDNSKNTLYLQMNSLRAEDTAVYYCARSLPKWGQGTLVTVSR
VL: SSELTQDPAVSVALGQTVRITCQGDSLRSYYASWYQQKPGQAPVLVTYGKNNRPSGIPDRFSGSSSGNTASLTITGAQAEDEADYYCNSSPVVLNGVVFGGGTKLTVL
notes: claims 6 and 8 say that 8 is a VH and 10 a VL; VH-linker-VL order follows from the cloning primers; Monomeric, FPLC-purified, in BIAcore; in the ELISA detected through a FLAG or myc tag
OD at 405 nm [1]: 1.11 OD 405 nm | OD at 405 nm [2]: 0.03 OD 405 nm | OD at 405 nm [3]: 0.01 OD 405 nm | OD at 405 nm [4]: 1.21 OD 405 nm | OD at 405 nm [5]: 1.16 OD 405 nm | OD at 405 nm [6]: 0.82 OD 405 nm | OD at 405 nm (recombinant FN domain 6 [7]): 0.01 OD 405 nm | binding result (mouse B-FN): binds | koff [8]: 0.0039 s⁻¹ | kon [8]: 110000 M⁻¹ s⁻¹ | koff [9]: 0.007 s⁻¹ | kon [9]: 130000 M⁻¹ s⁻¹ | koff [10]: 0.005 s⁻¹ | kon [10]: 410000 M⁻¹ s⁻¹ | binding result [11]: no binding | binding result [12]: no binding | Kd [13]: 35 nM | Kd [14]: 54 nM | Kd [15]: 12 nM | binding result [16]: no binding | binding result (recombinant FN domain 6 [17]): no binding

B2: scFv CGS-2 (scFv, V domains shown)
VH: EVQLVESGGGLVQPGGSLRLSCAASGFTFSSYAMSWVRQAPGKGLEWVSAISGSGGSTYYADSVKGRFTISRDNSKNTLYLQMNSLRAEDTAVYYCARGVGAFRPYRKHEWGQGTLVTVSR
VL: B1 VL with T47I, I74T, V92F, V93E, L94H, G96L
notes: claims 7 and 9 say that 9 is a VH and 11 a VL; Monomeric, FPLC-purified, in BIAcore
OD at 405 nm [1]: 1.02 OD 405 nm | OD at 405 nm [2]: 0.01 OD 405 nm | OD at 405 nm [3]: 0.01 OD 405 nm | OD at 405 nm [4]: 1.32 OD 405 nm | OD at 405 nm [5]: 0.72 OD 405 nm | OD at 405 nm [6]: 0.81 OD 405 nm | OD at 405 nm (recombinant FN domain 6 [7]): 0.01 OD 405 nm | binding result (chicken B-FN): binds | binding result (mouse B-FN): binds | koff [8]: 0.00023 s⁻¹ | kon [8]: 110000 M⁻¹ s⁻¹ | koff [9]: 0.00015 s⁻¹ | kon [9]: 130000 M⁻¹ s⁻¹ | koff [10]: 0.00065 s⁻¹ | kon [10]: 290000 M⁻¹ s⁻¹ | binding result [11]: no binding | binding result [18]: no binding | Kd [13]: 2.1 nM | Kd [14]: 1.1 nM | Kd [15]: 2.4 nM | binding result (recombinant FN domain 6 [17]): no binding

Source: US8703143 (PHILOGEN S P A, dated 2014)
